Bridges are numbered along the chain shown (N, C = ends). Where no end group is shown, it is not given here. [ ]: non-standard residue; d: D form. The star is where a group is joined. Acetyl(2-(4-imidazolyl)) = O=C(Cc1c[nH]cn1)*; Aib = CC(C)(N)C(=O)O
Assays:
Assay in all cases: cell-based or functional assay
[1] = molecular target: human glucagon receptor (human) (UniProt P47871)
[2] = molecular target: human GLP-1 receptor (human) (UniProt P43220)
human GLP-1 receptor = human GLP-1 receptor (human, UniProt P43220 24-463)
human glucagon receptor = human glucagon receptor (human, UniProt P47871 26-477)
human glucagon receptor, sequence (P47871 26-477): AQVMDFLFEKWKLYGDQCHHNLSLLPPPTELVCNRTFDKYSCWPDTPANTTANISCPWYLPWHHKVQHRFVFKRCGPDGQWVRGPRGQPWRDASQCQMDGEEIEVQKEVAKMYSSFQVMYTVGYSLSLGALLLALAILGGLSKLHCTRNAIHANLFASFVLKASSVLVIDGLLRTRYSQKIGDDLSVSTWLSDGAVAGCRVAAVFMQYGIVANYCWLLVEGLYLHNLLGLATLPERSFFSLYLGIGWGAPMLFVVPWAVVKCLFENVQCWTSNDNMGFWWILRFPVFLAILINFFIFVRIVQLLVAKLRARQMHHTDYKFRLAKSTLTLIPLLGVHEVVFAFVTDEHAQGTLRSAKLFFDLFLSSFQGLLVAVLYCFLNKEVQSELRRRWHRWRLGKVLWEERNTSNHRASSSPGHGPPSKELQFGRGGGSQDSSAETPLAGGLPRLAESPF

human GLP-1 receptor (human), sequence (P43220 24-463): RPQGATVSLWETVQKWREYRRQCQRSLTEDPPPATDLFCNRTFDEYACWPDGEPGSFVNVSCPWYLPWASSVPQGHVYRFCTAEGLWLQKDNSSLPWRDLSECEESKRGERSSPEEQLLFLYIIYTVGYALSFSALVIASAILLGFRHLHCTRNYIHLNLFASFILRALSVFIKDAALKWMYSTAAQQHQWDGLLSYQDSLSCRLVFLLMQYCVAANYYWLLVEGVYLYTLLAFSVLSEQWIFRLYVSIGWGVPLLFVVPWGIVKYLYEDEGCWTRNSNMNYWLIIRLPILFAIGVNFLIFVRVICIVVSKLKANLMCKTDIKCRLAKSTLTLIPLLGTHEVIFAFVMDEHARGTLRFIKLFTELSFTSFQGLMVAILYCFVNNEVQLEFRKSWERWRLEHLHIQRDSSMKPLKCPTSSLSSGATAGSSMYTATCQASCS
human glucagon receptor (human), sequence (P47871 26-477): as the sequence (P47871 26-477) above

[Acetyl(2-(4-imidazolyl))]SQGTFTSDYSRYLDEEAVRLFIEWIRNGGPSSGAPPPSK [oxyntomodulin derivative of SEQ ID NO: 18]
EC50 (cAMP, CHO/GCGR) [1]: > 1000 nM | EC50 (cAMP, CHO/GLP-1R) [2]: 96.3 nM

[Acetyl(2-(4-imidazolyl))]SQGTFTSDYSKYLDERRAQDFVAWLKNTGPSSGAPPPS [oxyntomodulin derivative of SEQ ID NO: 3]
EC50 (cAMP, CHO/GCGR) [1]: 638 nM | EC50 (cAMP, CHO/GLP-1R) [2]: > 1000 nM

[Acetyl(2-(4-imidazolyl))]GEGTFTSDLSRQMEEEAVRLFIEWAAHSQGTFTSDYSRYLDK [oxyntomodulin derivative of SEQ ID NO: 11]
EC50 (cAMP, CHO/GLP-1R) (human GLP-1 receptor): > 1000 nM | EC50 (cAMP, CHO/GCGR) (human glucagon receptor): > 1000 nM

Y[Aib]QGTFTSDYSKYLDEKRAKEFVQWLMNTC (bridge 16-20) [oxyntomodulin derivative of SEQ ID NO: 34]
EC50 (cAMP, CHO/GLP-1R) (human GLP-1 receptor): 12.5 nM | EC50 (cAMP, CHO/GCGR) (human glucagon receptor): 1.04 nM

[Acetyl(2-(4-imidazolyl))]GEGTFTSDLSRQMEEEAVRLFIEWAAHSQGTFTSDYSKYLD [oxyntomodulin derivative of SEQ ID NO: 6]
EC50 (cAMP, CHO/GCGR) (human glucagon receptor): > 1000 nM

[Acetyl(2-(4-imidazolyl))]SQGTFTSDLSRQLEEEAVRLFIEWLMNK [oxyntomodulin derivative of SEQ ID NO: 8]
EC50 (cAMP, CHO/GCGR) [1]: > 1000 nM | EC50 (cAMP, CHO/GLP-1R) [2]: 420 nM

H[Aib]QGTFTSDYSKYLDEKRAKEFVQWLMNTC (bridge 16-20) [oxyntomodulin derivative of SEQ ID NO: 25]
EC50 (cAMP, CHO/GLP-1R) (human GLP-1 receptor): 1.9 nM | EC50 (cAMP, CHO/GCGR) (human glucagon receptor): 1.3 nM

H[Aib]QGTFTSDYAKYLDEKRAKEFVQWLMNTC (bridge 16-20) [oxyntomodulin derivative of SEQ ID NO: 33]
EC50 (cAMP, CHO/GLP-1R) (human GLP-1 receptor): 2.2 nM | EC50 (cAMP, CHO/GCGR) (human glucagon receptor): 80.2 nM
